From patent US20230340146A1 (US Dept. of Health and Human Services, published 2023)

T1: human glypican-4 (GPC4) (human, UniProt O75487 19-529, limits assumed)
T1 construct: Named through 'human GPC1 through GPC6' in the methods; also called human GPC4; other human glypican members
T1 sequence (looked up): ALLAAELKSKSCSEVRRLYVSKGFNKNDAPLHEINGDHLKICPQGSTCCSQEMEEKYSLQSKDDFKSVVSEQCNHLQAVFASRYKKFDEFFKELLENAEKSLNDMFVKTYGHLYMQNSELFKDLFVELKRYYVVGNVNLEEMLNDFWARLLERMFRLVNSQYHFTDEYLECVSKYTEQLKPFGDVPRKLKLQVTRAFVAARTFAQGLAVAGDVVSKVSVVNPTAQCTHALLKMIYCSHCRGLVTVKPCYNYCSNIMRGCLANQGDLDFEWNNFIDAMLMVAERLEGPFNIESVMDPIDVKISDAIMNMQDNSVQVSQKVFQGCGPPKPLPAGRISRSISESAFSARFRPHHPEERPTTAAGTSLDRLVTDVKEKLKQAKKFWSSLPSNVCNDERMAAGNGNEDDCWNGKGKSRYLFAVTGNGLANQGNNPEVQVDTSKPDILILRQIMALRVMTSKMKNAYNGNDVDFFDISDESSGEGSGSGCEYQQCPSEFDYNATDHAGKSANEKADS

T2: GPC1 peptide 14
T2 peptide: FRDLYSELRLYYRGANLH

T3: GPC1 peptide 15
T3 peptide: LYYRGANLHLEETLAEFW

T4: human glypican-2 (GPC2) (human, UniProt Q8N158 24-554, limits assumed)
T4 construct: Named through 'human GPC1 through GPC6' in the methods; also called human GPC2; other human glypican members
T4 sequence (looked up): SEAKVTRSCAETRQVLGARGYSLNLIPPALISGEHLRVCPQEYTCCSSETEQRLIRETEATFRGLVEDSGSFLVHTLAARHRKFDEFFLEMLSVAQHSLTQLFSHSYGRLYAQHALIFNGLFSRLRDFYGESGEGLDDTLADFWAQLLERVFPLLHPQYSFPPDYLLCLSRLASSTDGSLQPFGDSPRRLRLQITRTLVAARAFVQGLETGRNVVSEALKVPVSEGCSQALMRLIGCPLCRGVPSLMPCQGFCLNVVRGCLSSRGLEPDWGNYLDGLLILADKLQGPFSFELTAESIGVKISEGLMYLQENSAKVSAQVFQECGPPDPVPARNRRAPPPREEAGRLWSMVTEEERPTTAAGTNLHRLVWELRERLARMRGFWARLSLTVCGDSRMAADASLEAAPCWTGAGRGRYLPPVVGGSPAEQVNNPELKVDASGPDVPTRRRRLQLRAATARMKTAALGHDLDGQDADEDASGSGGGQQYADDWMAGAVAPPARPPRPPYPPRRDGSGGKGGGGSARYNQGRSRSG

T5: human glypican-5 (GPC5) (human, UniProt P78333 25-551, limits assumed)
T5 construct: Named through 'human GPC1 through GPC6' in the methods; also called human GPC5; other human glypican members
T5 sequence (looked up): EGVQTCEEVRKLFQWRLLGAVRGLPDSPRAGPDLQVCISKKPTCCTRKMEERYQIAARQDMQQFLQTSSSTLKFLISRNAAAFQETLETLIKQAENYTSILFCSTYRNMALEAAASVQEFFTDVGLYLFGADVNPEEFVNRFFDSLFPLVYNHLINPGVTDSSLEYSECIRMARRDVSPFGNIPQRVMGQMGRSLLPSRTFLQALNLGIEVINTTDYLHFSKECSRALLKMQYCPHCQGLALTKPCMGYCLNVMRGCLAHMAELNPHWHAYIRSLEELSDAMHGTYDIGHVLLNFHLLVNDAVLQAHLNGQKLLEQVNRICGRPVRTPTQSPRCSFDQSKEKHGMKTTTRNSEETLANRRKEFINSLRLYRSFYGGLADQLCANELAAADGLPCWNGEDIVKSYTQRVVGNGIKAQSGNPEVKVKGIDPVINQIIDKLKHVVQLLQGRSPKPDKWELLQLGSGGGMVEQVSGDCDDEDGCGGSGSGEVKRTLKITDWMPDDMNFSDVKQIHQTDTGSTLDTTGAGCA

T6: human glypican-6 (GPC6) (human, UniProt Q9Y625 24-529, limits assumed)
T6 construct: Named through 'human GPC1 through GPC6' in the methods; also called human GPC6; other human glypican members
T6 sequence (looked up): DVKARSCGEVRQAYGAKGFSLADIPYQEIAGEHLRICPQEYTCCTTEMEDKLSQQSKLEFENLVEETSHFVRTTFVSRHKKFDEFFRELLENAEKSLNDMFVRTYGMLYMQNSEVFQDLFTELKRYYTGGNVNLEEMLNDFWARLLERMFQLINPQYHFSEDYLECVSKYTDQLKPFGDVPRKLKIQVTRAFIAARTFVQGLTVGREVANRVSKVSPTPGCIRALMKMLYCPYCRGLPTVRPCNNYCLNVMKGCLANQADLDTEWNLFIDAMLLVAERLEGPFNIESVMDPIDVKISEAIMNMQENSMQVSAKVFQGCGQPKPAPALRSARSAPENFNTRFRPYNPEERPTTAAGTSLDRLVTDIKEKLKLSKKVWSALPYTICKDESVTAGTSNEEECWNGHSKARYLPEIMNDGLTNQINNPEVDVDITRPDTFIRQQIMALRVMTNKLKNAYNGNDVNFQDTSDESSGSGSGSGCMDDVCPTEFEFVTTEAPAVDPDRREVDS

T7: mouse GPC1 protein (mouse, UniProt Q9QZF2 24-529, limits assumed)
T7 sequence (looked up): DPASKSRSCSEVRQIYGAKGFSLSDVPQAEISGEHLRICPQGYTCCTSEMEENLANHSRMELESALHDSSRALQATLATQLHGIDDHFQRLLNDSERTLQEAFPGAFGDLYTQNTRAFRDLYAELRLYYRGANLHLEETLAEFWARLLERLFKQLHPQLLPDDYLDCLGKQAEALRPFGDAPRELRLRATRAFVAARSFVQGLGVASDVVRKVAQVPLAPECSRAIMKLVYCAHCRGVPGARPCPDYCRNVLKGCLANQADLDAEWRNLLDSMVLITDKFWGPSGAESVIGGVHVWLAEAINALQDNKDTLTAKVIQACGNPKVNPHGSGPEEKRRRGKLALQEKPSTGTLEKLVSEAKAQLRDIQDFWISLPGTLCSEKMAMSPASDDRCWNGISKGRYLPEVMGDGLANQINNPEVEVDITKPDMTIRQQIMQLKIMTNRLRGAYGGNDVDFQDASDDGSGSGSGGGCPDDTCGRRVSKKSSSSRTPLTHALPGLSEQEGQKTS

T8: recombinant human GPC1-hFc protein (human, UniProt P35052 24-530, limits assumed)
T8 construct: Analyte in the Octet measurement of D4; not shown: human Fc (hFc)
T8 sequence (looked up): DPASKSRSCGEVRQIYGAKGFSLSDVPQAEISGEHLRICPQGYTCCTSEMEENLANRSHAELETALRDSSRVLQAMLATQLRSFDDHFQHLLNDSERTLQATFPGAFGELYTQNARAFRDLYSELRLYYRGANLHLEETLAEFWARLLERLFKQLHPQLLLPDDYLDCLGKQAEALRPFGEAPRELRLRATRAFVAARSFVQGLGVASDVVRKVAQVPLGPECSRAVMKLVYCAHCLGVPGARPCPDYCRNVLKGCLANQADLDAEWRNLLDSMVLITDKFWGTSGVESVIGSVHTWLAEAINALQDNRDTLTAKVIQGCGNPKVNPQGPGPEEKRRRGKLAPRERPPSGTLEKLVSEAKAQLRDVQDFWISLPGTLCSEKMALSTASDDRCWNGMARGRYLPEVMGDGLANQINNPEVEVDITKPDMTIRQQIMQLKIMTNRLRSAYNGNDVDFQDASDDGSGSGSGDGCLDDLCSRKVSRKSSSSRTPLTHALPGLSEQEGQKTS

T9: GPC1 peptide 53
T9 peptide: DGCLDDLCSRKVSRKSSS

T10: His-tagged GPC1 protein (human, UniProt P35052 24-530, limits assumed)
T10 construct: Immobilised on a Ni-NTA biosensor for the Octet measurement of HM2; also called human GPC1; not shown: His tag
T10 sequence (looked up): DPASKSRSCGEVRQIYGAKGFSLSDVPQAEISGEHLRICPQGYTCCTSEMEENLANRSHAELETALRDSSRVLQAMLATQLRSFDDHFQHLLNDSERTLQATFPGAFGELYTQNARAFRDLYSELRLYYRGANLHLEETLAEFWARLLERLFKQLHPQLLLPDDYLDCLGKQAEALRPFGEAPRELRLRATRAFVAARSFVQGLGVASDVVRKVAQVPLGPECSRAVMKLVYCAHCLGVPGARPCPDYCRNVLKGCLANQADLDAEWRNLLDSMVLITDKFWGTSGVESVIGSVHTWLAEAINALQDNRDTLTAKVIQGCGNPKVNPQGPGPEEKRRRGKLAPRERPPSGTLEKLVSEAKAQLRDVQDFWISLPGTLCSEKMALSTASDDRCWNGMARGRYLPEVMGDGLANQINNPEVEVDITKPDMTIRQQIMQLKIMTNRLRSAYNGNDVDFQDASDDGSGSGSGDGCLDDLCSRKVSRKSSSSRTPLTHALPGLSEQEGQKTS

B1: D4 camel single-domain antibody (VHH)
VHH: QVQLVESGGGLVQPGGSLRLSCVASGYSYSIGYMAWFRQAPGKERAWVASRYTGDGGAVFDDAVKGRFTTSQESAGNTFDLQMDSLKPEDTAMYYCAAKGPGFGRWEYWGRGTQVTVSS
notes: the methods describe D4 at 1 ug/ml detected with anti-FLAG; also called D4 antibody; D4 clone; not shown: FLAG and His tags (detected with anti-FLAG; 'His-tagged D4')
B2: HM2 mouse monoclonal antibody (antibody, V domains shown)
VH: EVQLQQSGAELVRPGASVKLSCTASGFNIKDDYMHWVKQRPEQGLEWIGWIDPENGDTEYASKFQGKATITADTSSNTAYLQLSSLTSEDTAVYYCTRSSVGYWGQGTTLTVSS
VL: DVVMTQTPLSLPVSLGDQASISCRSSQSLVHSNGNTYLHWYLQKPGQSPKLLIYKVSNRFSGVPDRFSGSGSGTYFTLKISRVEAEDLGVYFCSQRTHVPYTFGGGTKLEIK
notes: Mouse monoclonal antibody (detected with goat anti-mouse IgG); also called HM2 mAb; HM2 clone

Columns and labels:
human glypican-4 (GPC4) [1] = target: T1, human glypican-4 (GPC4); experiment: ELISA on human GPC4, anti-FLAG detection
Method: (§1) Mouse hybridoma supernatant containing 1 µg/ml of each mAb was incubated with plates coated with human GPC1 through GPC6 purchased from R&D Systems. Binding was detected with a goat anti-mouse IgG conjugated with horseradish peroxidase (HRP) (Jackson ImmunoResearch). […] Binding was detected with an anti-FLAG HRP-conjugated antibody (Sigma-Aldrich). […] Recombinant human GPC1-hFc protein at concentrations of 5 µg/ml and 1 µg/ml were then added to the plate.

GPC1 peptide 14 = target: T2, GPC1 peptide 14; experiment: ELISA on peptides of the GPC1 peptide library
GPC1 peptide 15 = target: T3, GPC1 peptide 15; experiment: ELISA on peptides of the GPC1 peptide library
human glypican-2 (GPC2) [2] = target: T4, human glypican-2 (GPC2); experiment: monoclonal phage ELISA on plate-coated glypicans
human glypican-3 (GPC3) [3] = target: T11, human glypican-3 (GPC3) (human, UniProt P51654 25-559, limits assumed); experiment: monoclonal phage ELISA on plate-coated glypicans
T11 construct: Named through 'human GPC1 through GPC6' in the methods; also called human GPC3; other human glypican members

human glypican-5 (GPC5) [4] = target: T5, human glypican-5 (GPC5); experiment: monoclonal phage ELISA on plate-coated glypicans
human glypican-6 (GPC6) [5] = target: T6, human glypican-6 (GPC6); experiment: monoclonal phage ELISA on plate-coated glypicans
mouse GPC1 protein = target: T7, mouse GPC1 protein; experiment: monoclonal phage ELISA on plate-coated mouse GPC1
[6] = target: T8, recombinant human GPC1-hFc protein; experiment: Octet (BLI), His-tagged D4 on Ni-NTA biosensor, serially diluted human GPC1-hFc in solution
Method: (§2) Data analysis was performed using the FortéBio analysis software.

human glypican-4 (GPC4) [7] = target: T1, human glypican-4 (GPC4); experiment: ELISA, plate coated with human GPC4
Method: as §1

GPC1 peptide 53 = target: T9, GPC1 peptide 53; experiment: ELISA on peptides of the GPC1 peptide library
His-tagged GPC1 protein = target: T10, His-tagged GPC1 protein; experiment: Octet (BLI), His-tagged GPC1 on Ni-NTA biosensor, HM2 in solution
Method: as §2

human glypican-2 (GPC2) [8] = target: T4, human glypican-2 (GPC2); experiment: ELISA on plate-coated human glypicans, goat anti-mouse IgG-HRP
human glypican-3 (GPC3) [9] = target: T11, human glypican-3 (GPC3); experiment: as above
human glypican-5 (GPC5) [10] = target: T5, human glypican-5 (GPC5); experiment: as above
human glypican-6 (GPC6) [11] = target: T6, human glypican-6 (GPC6); experiment: as above

Binder	binding result (human glypican-4 (GPC4) [1])	binding result (GPC1 peptide 14)	binding result (GPC1 peptide 15)	binding result (human glypican-2 (GPC2) [2])	binding result (human glypican-3 (GPC3) [3])	binding result (human glypican-5 (GPC5) [4])	binding result (human glypican-6 (GPC6) [5])	binding result (mouse GPC1 protein)	Kd [6] [pM]	binding result (human glypican-4 (GPC4) [7])	binding result (GPC1 peptide 53)	Kd (His-tagged GPC1 protein) [pM]	binding result (human glypican-2 (GPC2) [8])	binding result (human glypican-3 (GPC3) [9])	binding result (human glypican-5 (GPC5) [10])	binding result (human glypican-6 (GPC6) [11])
B1	no binding (tested: 1 µg/ml)	binds	binds	no binding (tested: 1 µg/ml (per paragraph 203; not on the sheet))	no binding (tested: 1 µg/ml (per paragraph 203; not on the sheet))	no binding (tested: 1 µg/ml (per paragraph 203; not on the sheet))	no binding (tested: 1 µg/ml (per paragraph 203; not on the sheet))	binds	700							
B2										no binding (tested: 1 µg/ml)	binds	400	no binding (tested: 1 µg/ml)	no binding (tested: 1 µg/ml)	no binding (tested: 1 µg/ml)	no binding (tested: 1 µg/ml)
